# Experimental data: the RNAGym collection of RNA variant scans (doi:10.7554/elife.90254)
# B1: LINE1-full (parent)
# chain: UACGUAGGUGGUUUUCCCCUGAUAGUGCUAAGGGGGCCUGGAAGUUUGGACUGGGCAGAGCUCAACACAGCGUGGCAAAGUGGCUGUGGCUAGACUGCCUCUCUGGAUUCCUCGUCACUCAGCAGGGCAUCUCUGAGAGAAAUGCC
# Variants of: B1
# Experiment: self-cleavage, relative activity (ratio to wild type); higher = more cleavage; in vitro, sequencing; the parent is a self-cleaving ribozyme
row,Variant,self-cleavage
1,U45C U143A,1.39
2,U102A U112C,0.96
3,U15A U52G,1.23
4,U102C U108C,1.15
5,A24G G34U,0.21
6,C18U U115C,1.49
7,U85A C113U,0.06
8,U13C G106A,1.51
9,U12C A64U,1.53
10,A59G C61A,0.03
11,U73G U102A,1.22
12,U96C C113A,0.05
13,G58U U132C,0.01
14,A30C U46C,1.48
15,U87C U91A,0.2
16,U46C G48U,1.61
17,U96C U134G,0.11
18,A92U U104C,0.96
19,A59C A117G,2.7
20,U14C,1.15
21,A24U G80C,1.41
22,G82A U143C,2.03
23,A43G C128U,0.79
24,A30G U85G,0.17

row,Variant,self-cleavage
1,G44A A140G,1.34
2,A6U U12G,1.21
3,U62C A117C,0.03
4,U15G U115C,0.84
5,G54A A92G,0.04
6,A30G A57G,1.39
7,C123U U130C,1.74
8,U85C U91A,0.14
9,U143C C145U,1.06
10,U1G U12C,0.64
11,A117G C118U,1.44
12,A64G U134C,0.28
13,U132G,1.52
14,U39C U130C,2.49
15,U12C U47G,1.21
16,C28U A138G,1.01
17,U102C U104A,1.52
18,U26A U47C,1
19,A6U U109A,0.99
20,U62C A136G,0.06
21,A24U A117G,0.54
22,U47C U132C,1.62
23,G60A A77G,0.03
24,U87A U104C,0.11

row,Variant,self-cleavage
1,G83C,0.87
2,A50U U81G,0.74
3,C16U U108A,1.14
4,U73G U115A,1.12
5,C37U A78G,0.96
6,A22G A50G,0.97
7,U9G U96A,0
8,G72A A124G,0.52
9,A77U U100C,1.58
10,A31G U81A,0.66
11,U47C U100A,1.51
12,G44U A78G,1.68
13,A30C C113U,1.32
14,A24G A65C,0.16
15,A65G G114A,0.04
16,A77G A129U,2
17,C37G U91C,0.32
18,G82A A138G,2.26
19,U20A U85A,0.11
20,G122A U134C,1.43
21,A64U U112A,0.47
22,U15A A50G,0.67
23,C38U A78G,1.28
24,U14C C19U,0.83

row,Variant,self-cleavage
1,A2G G36A,0.7
2,U47G A129U,0.53
3,A77G U132C,2.73
4,U9A G126A,0.82
5,U132A A140U,1.11
6,G80A U96C,0.18
7,U14C G97A,0.09
8,A22G C101A,1.47
9,A65G U115C,0.05
10,G7U G54A,0.94
11,A77C A78G,1.63
12,C128A,0.7
13,A117U C128A,0.99
14,U23A U52C,0.75
15,U112C G135A,1.44
16,U5G G34C,0.94
17,U104C U119A,2.16
18,A67U U87C,0.21
19,U9C A94G,0.66
20,U23C C113U,0.88
21,G25U A30G,1.27
22,G40A A117U,1.43
23,C38G U39G,1.28
24,A6C A141G,1.71

row,Variant,self-cleavage
1,A50C A77U,0.35
2,C76G A141G,2.47
3,C90U A136G,0.05
4,U23A U85A,0.08
5,C37A U91C,0.41
6,C71U U85C,0.06
7,A78U U91A,0.85
8,G60A C146A,0.02
9,U91A U100A,0.56
10,A107G G139A,1.19
11,U23C A30G,0.89
12,U47G U119A,1.32
13,C101A C113A,1.41
14,A2G U115C,1.43
15,G106U A141G,0.83
16,G36C U143C,1.43
17,G35U U81A,1.82
18,C116U A124U,1.87
19,U14A U81C,1.1
20,A59G A64G,0.06
21,A92G C98A,0.08
22,G114A U115C,1.58
23,U87A A141U,0.08
24,C16A G32A,0.77

row,Variant,self-cleavage
1,U20G U52A,1.36
2,A107U C146U,1.21
3,G75U U115A,1.06
4,C51U U91A,0.84
5,G126U A129G,1.61
6,U26A A121U,1.11
7,C98U U112C,0.26
8,U104C A140U,1.25
9,G70U A138G,0.1
10,U45A C99U,0.59
11,U85G G144A,0.21
12,U115A A136G,1.68
13,A2C C56U,0.11
14,C76U A140G,2.36
15,G72A A129G,1.67
16,U81A U85A,0.09
17,U20C G32U,0.94
18,G36A U109C,0.75
19,U5A U132C,1.25
20,U1C A42G,0.92
21,U45C U85G,0.26
22,U14C A121U,1.25
23,G82A G86U,0.1
24,U52G U87G,0.59

row,Variant,self-cleavage
1,G49U A124U,1.59
2,A65G U112C,0.1
3,A64G G93A,0.04
4,U9A U87G,0.23
5,U12C A107C,1.53
6,C38A A129G,1.46
7,A65G A77G,0.04
8,A69G G139U,0.36
9,A78G A107G,1.26
10,A50G C123U,0.43
11,A43G A124U,1.38
12,U26C A59U,0.84
13,A31G U134A,0.45
14,A94U C131U,0.29
15,U52A A136G,1.4
16,G72A C84U,0.19
17,U29C A92G,0.21
18,U134C,1.18
19,A22G U100G,1.75
20,A69U U130A,0.09
21,U104A A138G,1.34
22,A50G A78U,1.2
23,U12G C113U,0.66
